Results published in patent US20260209293A1 (Novo Nordisk, published 2026).
*1 amine or outer side, *2 acyl side, *3 side chain or, on linkers, in order; H or OH if unused. The star is where a group is joined. C20 diacid = O=C(O)CCCCCCCCCCCCCCCCCCC(=O)*; C18 diacid = O=C(O)CCCCCCCCCCCCCCCCC(=O)*; γGlu = O=C(O)[C@H](CCC(=O)[*:2])N[*:1]

T1: human calcitonin receptor (a) (human, UniProt P30988 25-474)
T1 sequence (looked up): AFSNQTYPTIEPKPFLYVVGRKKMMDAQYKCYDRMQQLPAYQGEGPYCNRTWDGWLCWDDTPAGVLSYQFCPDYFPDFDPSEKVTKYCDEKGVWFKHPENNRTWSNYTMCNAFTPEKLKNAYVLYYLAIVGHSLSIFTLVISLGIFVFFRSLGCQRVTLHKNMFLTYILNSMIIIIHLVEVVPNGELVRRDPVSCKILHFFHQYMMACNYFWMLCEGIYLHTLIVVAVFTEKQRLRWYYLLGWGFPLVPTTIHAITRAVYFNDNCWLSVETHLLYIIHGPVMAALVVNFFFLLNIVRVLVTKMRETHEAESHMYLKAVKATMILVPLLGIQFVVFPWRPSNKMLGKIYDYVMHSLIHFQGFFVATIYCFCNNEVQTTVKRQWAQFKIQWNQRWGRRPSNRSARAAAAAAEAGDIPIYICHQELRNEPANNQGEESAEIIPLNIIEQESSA

T2: human amylin-3(a) receptor (human, UniProt P30988 25-474; O60896 24-148)
T2 sequence (looked up) 1: T1 sequence (looked up)
T2 sequence (looked up) 2: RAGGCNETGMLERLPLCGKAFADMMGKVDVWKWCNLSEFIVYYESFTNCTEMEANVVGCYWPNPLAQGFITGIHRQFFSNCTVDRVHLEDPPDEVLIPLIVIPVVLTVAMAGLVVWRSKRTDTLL

B1: N^1-[(4S)-4-carboxy-4-(19-carboxynonadecanoylamino)butanoyl]-[Ala1,Ser2,His3,Leu4,Ser5,Ala7,Gln8,Ala10,Glu14,His17,Asp21,Pro25,Pro28,Pro29,Asp31,Pro37]-human … (peptide)
peptide: {C20 diacid-γGlu}-ASHLSTAQTARLAEFLHHSSDNFGPILPPTDVGSNTP-NH2
SMILES: CC[C@H](C)[C@H](NC(=O)[C@@H]1CCCN1C(=O)CNC(=O)[C@H](Cc1ccccc1)NC(=O)[C@H](CC(N)=O)NC(=O)[C@H](CC(=O)O)NC(=O)[C@H](CO)NC(=O)[C@H](CO)NC(=O)[C@H](Cc1c[nH]cn1)NC(=O)[C@H](Cc1c[nH]cn1)NC(=O)[C@H](CC(C)C)NC(=O)[C@H](Cc1ccccc1)NC(=O)[C@H](CCC(=O)O)NC(=O)[C@H](C)NC(=O)[C@H](CC(C)C)NC(=O)[C@H](CCCNC(=N)N)NC(=O)[C@H](C)NC(=O)[C@@H](NC(=O)[C@H](CCC(N)=O)NC(=O)[C@H](C)NC(=O)[C@@H](NC(=O)[C@H](CO)NC(=O)[C@H](CC(C)C)NC(=O)[C@H](Cc1c[nH]cn1)NC(=O)[C@H](CO)NC(=O)[C@H](C)NC(=O)CC[C@H](NC(=O)CCCCCCCCCCCCCCCCCCC(=O)O)C(=O)O)[C@@H](C)O)[C@@H](C)O)C(=O)N[C@@H](CC(C)C)C(=O)N1CCC[C@H]1C(=O)N1CCC[C@H]1C(=O)N[C@H](C(=O)N[C@@H](CC(=O)O)C(=O)N[C@H](C(=O)NCC(=O)N[C@@H](CO)C(=O)N[C@@H](CC(N)=O)C(=O)N[C@H](C(=O)N1CCC[C@H]1C(N)=O)[C@@H](C)O)C(C)C)[C@@H](C)O
B2: N^1-[(4S)-4-carboxy-4-(19-carboxynonadecanoylamino)butanoyl]-[Ala1,Ser2,His3,Leu4,Ser5,Ala7,Gln8,Glu14,His17,Asp21, Pro22,Pro27,Asp31, Pro34,Asp35, … (peptide)
peptide: {C20 diacid-γGlu}-ASHLSTAQTQRLAEFLHHSSDPFGAIPSSTDVGPDTP-NH2
SMILES: CC[C@H](C)[C@H](NC(=O)[C@H](C)NC(=O)CNC(=O)[C@H](Cc1ccccc1)NC(=O)[C@@H]1CCCN1C(=O)[C@H](CC(=O)O)NC(=O)[C@H](CO)NC(=O)[C@H](CO)NC(=O)[C@H](Cc1c[nH]cn1)NC(=O)[C@H](Cc1c[nH]cn1)NC(=O)[C@H](CC(C)C)NC(=O)[C@H](Cc1ccccc1)NC(=O)[C@H](CCC(=O)O)NC(=O)[C@H](C)NC(=O)[C@H](CC(C)C)NC(=O)[C@H](CCCNC(=N)N)NC(=O)[C@H](CCC(N)=O)NC(=O)[C@@H](NC(=O)[C@H](CCC(N)=O)NC(=O)[C@H](C)NC(=O)[C@@H](NC(=O)[C@H](CO)NC(=O)[C@H](CC(C)C)NC(=O)[C@H](Cc1c[nH]cn1)NC(=O)[C@H](CO)NC(=O)[C@H](C)NC(=O)CC[C@H](NC(=O)CCCCCCCCCCCCCCCCCCC(=O)O)C(=O)O)[C@@H](C)O)[C@@H](C)O)C(=O)N1CCC[C@H]1C(=O)N[C@@H](CO)C(=O)N[C@@H](CO)C(=O)N[C@H](C(=O)N[C@@H](CC(=O)O)C(=O)N[C@H](C(=O)NCC(=O)N1CCC[C@H]1C(=O)N[C@@H](CC(=O)O)C(=O)N[C@H](C(=O)N1CCC[C@H]1C(N)=O)[C@@H](C)O)C(C)C)[C@@H](C)O
B3: N^1-[(4S)-4-carboxy-4-(19-carboxynonadecanoylamino)butanoyl]-[Ala1,Gly2, His3,Leu4,Ser5,Ala7,Gln8,Glu14,His17,Asp21, Pro22, Pro27,Asp31, Pro34,Asp35, … (peptide)
peptide: {C20 diacid-γGlu}-AGHLSTAQTQRLAEFLHHSSDPFGAIPSSTDVGPDTP-NH2
SMILES: CC[C@H](C)[C@H](NC(=O)[C@H](C)NC(=O)CNC(=O)[C@H](Cc1ccccc1)NC(=O)[C@@H]1CCCN1C(=O)[C@H](CC(=O)O)NC(=O)[C@H](CO)NC(=O)[C@H](CO)NC(=O)[C@H](Cc1c[nH]cn1)NC(=O)[C@H](Cc1c[nH]cn1)NC(=O)[C@H](CC(C)C)NC(=O)[C@H](Cc1ccccc1)NC(=O)[C@H](CCC(=O)O)NC(=O)[C@H](C)NC(=O)[C@H](CC(C)C)NC(=O)[C@H](CCCNC(=N)N)NC(=O)[C@H](CCC(N)=O)NC(=O)[C@@H](NC(=O)[C@H](CCC(N)=O)NC(=O)[C@H](C)NC(=O)[C@@H](NC(=O)[C@H](CO)NC(=O)[C@H](CC(C)C)NC(=O)[C@H](Cc1c[nH]cn1)NC(=O)CNC(=O)[C@H](C)NC(=O)CC[C@H](NC(=O)CCCCCCCCCCCCCCCCCCC(=O)O)C(=O)O)[C@@H](C)O)[C@@H](C)O)C(=O)N1CCC[C@H]1C(=O)N[C@@H](CO)C(=O)N[C@@H](CO)C(=O)N[C@H](C(=O)N[C@@H](CC(=O)O)C(=O)N[C@H](C(=O)NCC(=O)N1CCC[C@H]1C(=O)N[C@@H](CC(=O)O)C(=O)N[C@H](C(=O)N1CCC[C@H]1C(N)=O)[C@@H](C)O)C(C)C)[C@@H](C)O
B4: N^1-[(4S)-4-carboxy-4-(17-carboxyheptadecanoylamino)butanoyl]-[Ala1,Ser2,His3,Leu4,Ser5,Ala7,Gln8,Glu14,His17,Asp21,Pro22,Pro27,Asp31,Pro34,Asp35, Pro37]-human … (peptide)
peptide: {C18 diacid-γGlu}-ASHLSTAQTQRLAEFLHHSSDPFGAIPSSTDVGPDTP-NH2
SMILES: CC[C@H](C)[C@H](NC(=O)[C@H](C)NC(=O)CNC(=O)[C@H](Cc1ccccc1)NC(=O)[C@@H]1CCCN1C(=O)[C@H](CC(=O)O)NC(=O)[C@H](CO)NC(=O)[C@H](CO)NC(=O)[C@H](Cc1c[nH]cn1)NC(=O)[C@H](Cc1c[nH]cn1)NC(=O)[C@H](CC(C)C)NC(=O)[C@H](Cc1ccccc1)NC(=O)[C@H](CCC(=O)O)NC(=O)[C@H](C)NC(=O)[C@H](CC(C)C)NC(=O)[C@H](CCCNC(=N)N)NC(=O)[C@H](CCC(N)=O)NC(=O)[C@@H](NC(=O)[C@H](CCC(N)=O)NC(=O)[C@H](C)NC(=O)[C@@H](NC(=O)[C@H](CO)NC(=O)[C@H](CC(C)C)NC(=O)[C@H](Cc1c[nH]cn1)NC(=O)[C@H](CO)NC(=O)[C@H](C)NC(=O)CC[C@H](NC(=O)CCCCCCCCCCCCCCCCC(=O)O)C(=O)O)[C@@H](C)O)[C@@H](C)O)C(=O)N1CCC[C@H]1C(=O)N[C@@H](CO)C(=O)N[C@@H](CO)C(=O)N[C@H](C(=O)N[C@@H](CC(=O)O)C(=O)N[C@H](C(=O)NCC(=O)N1CCC[C@H]1C(=O)N[C@@H](CC(=O)O)C(=O)N[C@H](C(=O)N1CCC[C@H]1C(N)=O)[C@@H](C)O)C(C)C)[C@@H](C)O
B5: N^1-[(4S)-4-carboxy-4-[[(4S)-4-carboxy-4-(17-carboxyheptadecanoylamino)butanoyl]amino]butanoyl]-[Ala1,Ser2,His3,Leu4,Ser5,Ala7,Gln8,Glu14,His17,Asp21, … (peptide)
peptide: {C18 diacid-γGlu-γGlu}-ASHLSTAQTQRLAEFLHHSSDPFGAIPSSTDVGPDTP-NH2
SMILES: CC[C@H](C)[C@H](NC(=O)[C@H](C)NC(=O)CNC(=O)[C@H](Cc1ccccc1)NC(=O)[C@@H]1CCCN1C(=O)[C@H](CC(=O)O)NC(=O)[C@H](CO)NC(=O)[C@H](CO)NC(=O)[C@H](Cc1c[nH]cn1)NC(=O)[C@H](Cc1c[nH]cn1)NC(=O)[C@H](CC(C)C)NC(=O)[C@H](Cc1ccccc1)NC(=O)[C@H](CCC(=O)O)NC(=O)[C@H](C)NC(=O)[C@H](CC(C)C)NC(=O)[C@H](CCCNC(=N)N)NC(=O)[C@H](CCC(N)=O)NC(=O)[C@@H](NC(=O)[C@H](CCC(N)=O)NC(=O)[C@H](C)NC(=O)[C@@H](NC(=O)[C@H](CO)NC(=O)[C@H](CC(C)C)NC(=O)[C@H](Cc1c[nH]cn1)NC(=O)[C@H](CO)NC(=O)[C@H](C)NC(=O)CC[C@H](NC(=O)CC[C@H](NC(=O)CCCCCCCCCCCCCCCCC(=O)O)C(=O)O)C(=O)O)[C@@H](C)O)[C@@H](C)O)C(=O)N1CCC[C@H]1C(=O)N[C@@H](CO)C(=O)N[C@@H](CO)C(=O)N[C@H](C(=O)N[C@@H](CC(=O)O)C(=O)N[C@H](C(=O)NCC(=O)N1CCC[C@H]1C(=O)N[C@@H](CC(=O)O)C(=O)N[C@H](C(=O)N1CCC[C@H]1C(N)=O)[C@@H](C)O)C(C)C)[C@@H](C)O
B6: N^1-[(4S)-4-carboxy-4-(17-carboxyheptadecanoylamino)butanoyl]-[Ala1,Gly2,Ser3,Leu4,Ser5,Ala7,Gln8,Glu14,His17,Asp21, Pro22,Pro27,Asp31, Pro34,Asp35, … (peptide)
peptide: {C18 diacid-γGlu}-AGSLSTAQTQRLAEFLHHSSDPFGAIPSSTDVGPDTP-NH2
SMILES: CC[C@H](C)[C@H](NC(=O)[C@H](C)NC(=O)CNC(=O)[C@H](Cc1ccccc1)NC(=O)[C@@H]1CCCN1C(=O)[C@H](CC(=O)O)NC(=O)[C@H](CO)NC(=O)[C@H](CO)NC(=O)[C@H](Cc1c[nH]cn1)NC(=O)[C@H](Cc1c[nH]cn1)NC(=O)[C@H](CC(C)C)NC(=O)[C@H](Cc1ccccc1)NC(=O)[C@H](CCC(=O)O)NC(=O)[C@H](C)NC(=O)[C@H](CC(C)C)NC(=O)[C@H](CCCNC(=N)N)NC(=O)[C@H](CCC(N)=O)NC(=O)[C@@H](NC(=O)[C@H](CCC(N)=O)NC(=O)[C@H](C)NC(=O)[C@@H](NC(=O)[C@H](CO)NC(=O)[C@H](CC(C)C)NC(=O)[C@H](CO)NC(=O)CNC(=O)[C@H](C)NC(=O)CC[C@H](NC(=O)CCCCCCCCCCCCCCCCC(=O)O)C(=O)O)[C@@H](C)O)[C@@H](C)O)C(=O)N1CCC[C@H]1C(=O)N[C@@H](CO)C(=O)N[C@@H](CO)C(=O)N[C@H](C(=O)N[C@@H](CC(=O)O)C(=O)N[C@H](C(=O)NCC(=O)N1CCC[C@H]1C(=O)N[C@@H](CC(=O)O)C(=O)N[C@H](C(=O)N1CCC[C@H]1C(N)=O)[C@@H](C)O)C(C)C)[C@@H](C)O

What was measured:
[1] = target: T1, human calcitonin receptor (a); assay: cell-based or functional assay
[2] = target: T2, human amylin-3(a) receptor; assay: cell-based or functional assay

Binder	hCalcR potency, EC50 (pM); CRE-luciferase reporter in BHK cells [1] [pM]	hAmyR3 potency, EC50 (pM); CRE-luciferase reporter in BHK cells [2] [pM]
B1	1.31	0.77
B2	1.25	0.86
B3	1.81	1.68
B4	1.44	1.5
B5	1.68	2.18
B6	1.49	1.44
